Reference: PMC3223699 (Cell Death & Disease, 2011)
Ends that are not written are not given here.

How the values were obtained:
[1] = system: P. falciparum; conditions: asexual stage P. falciparum; ref [30], [31]; cited from earlier work
[2] = system: P. falciparum 3D7; experiment: Recovery of treated parasite culture after peptide removal; assay type: cell-based, Plasmodium falciparum; conditions: 50 μM (~EC50), removed at 4 h, then grown 24 h
[3] = molecular target: recombinant PfClpQ, mature region (38-170 aa) (P. falciparum); experiment: SPR

CCN(CC)CCCC(C)Nc1ccnc2cc(Cl)ccc12 (centres unmarked) [chloroquine]
apoptosis-like features (in words) [1]: loss of mitochondrial membrane potential (Δψm), activation of caspase-like cytseine proteases and nuclear DNA fragmentation

FIKQYDLKKYII [FI-peptide]
growth inhibition after peptide removal at 4 h [2]: < 20%

B1: FI-peptide, 12-amino-acid synthetic peptide corresponding to the C terminus of PfClpY (peptide)
peptide: FIKQYDLKKYII
Kd [3]: 62.4 µM | koff [3]: 0.00976 s⁻¹ | kon [3]: 157 M⁻¹ s⁻¹
